Assay results as given in patent publication EP2341079A1 (Institut Pasteur, dated 2011).

What was measured:
streptavidin = streptavidin (UniProt P22629 37-163, limits assumed); experiment: ELISA (data not shown)
neutravidin = neutravidin (UniProt P02701 25-152); experiment: ELISA (data not shown)
[1] = biological target: T1, hIgG (IgG pool from human serum containing hIgG1, hIgG2, hIgG3, hIgG4; Fluka reference number 56834); experiment: SPR (BIAcore 3000), hIgG on CM5 chip, binder injected, 1:1 global fit
T1 construct: Polyclonal mixture from human serum; also called human IgG; Immunoglobulin G from human serum

[2] = biological target: T2, hIgG1 (Sigma-Aldrich reference number I5029) (human, UniProt P01857-1 1-330 = IgG part); experiment: SPR, hIgG1 immobilised at low density, C3 injected 16-1000 nM, global fit (Fig. 6)
T2 construct: Purified subclass, bought; also called Human IgG1; human IgG1 subclass
T2 sequence (P01857 other isoform, or with tags, fused parts or gaps): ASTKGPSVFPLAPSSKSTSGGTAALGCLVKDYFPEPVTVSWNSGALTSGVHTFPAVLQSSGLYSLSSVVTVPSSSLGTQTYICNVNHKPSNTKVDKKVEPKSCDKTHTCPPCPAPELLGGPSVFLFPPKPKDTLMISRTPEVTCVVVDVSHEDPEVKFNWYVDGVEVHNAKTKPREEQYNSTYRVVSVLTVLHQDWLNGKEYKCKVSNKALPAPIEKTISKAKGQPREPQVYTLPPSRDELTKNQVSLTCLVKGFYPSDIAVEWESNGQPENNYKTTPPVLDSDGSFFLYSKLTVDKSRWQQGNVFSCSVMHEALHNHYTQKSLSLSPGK

streptavidin, sequence (P22629 37-163 limits assumed): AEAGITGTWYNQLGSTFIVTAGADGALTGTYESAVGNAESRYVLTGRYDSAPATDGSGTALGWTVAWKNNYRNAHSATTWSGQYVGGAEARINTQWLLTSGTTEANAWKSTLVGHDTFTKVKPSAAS
neutravidin, sequence (P02701 25-152): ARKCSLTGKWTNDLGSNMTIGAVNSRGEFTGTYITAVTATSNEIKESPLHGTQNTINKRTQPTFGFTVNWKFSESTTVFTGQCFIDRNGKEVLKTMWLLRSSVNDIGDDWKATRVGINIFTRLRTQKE

B1: C3 binder (designed binder)
chain: SVKVKFLLNGEEKEVDTSKIRDVCRQGKNVKFLYNDNGKYGAGNVDEKDAPKELLDMLARAEREKK
notes: Sac7d variant made with a His-tag in E. coli; monomeric by gel filtration; Used free, biotinylated on a streptavidin chip, labelled with AlexaFluor 680, or NHS-coupled to agarose, as said under assay; also called clone C3; not shown: RGS-(His)6 tag from vector pFP1001 (pQE30 derivative)
streptavidin
  binding result: no binding
neutravidin
  binding result: no binding
[1]
  Kd: 74 nM
  koff: 0.066 s⁻¹
  kon: 890000 M⁻¹ s⁻¹
[2]
  Kd: 94 nM
  koff: 0.051 s⁻¹
  kon: 540000 M⁻¹ s⁻¹
